The values that follow come from patent publication US20130251714A1.

The experiment concerns the target CXCR5 (human; form in the assay not stated) (UniProt P32302). The experiment in a line: side-by-side comparison; method not stated.

B1: Mouse anti-hCXCR5 mAb clone 16D7 (antibody, V domains shown)
VH: QVQLKESGPGLVAPSQSLSITCTVSGFSLIDYGVNWIRQPPGKGLEWLGVIWGDGTTYYNSALKSRLSIRKDNSQSQVFLKMNSLQTDDTAMYYCARIVYWGQGTLVTVSA
VL: DIVMTQAAPSVAVTPRESVSISCRSSKSLLHSSGKTYLYWFLQRPGQSPQLLIYRMSNLASGVPDRFSGSGSGTAFTLRISRVEAEDVGVYYCMQHLEYPYTFGGGTKLEIK
As for B1, the fold higher affinity than the commercial antibodies was 10 fold and the off rate, times better than the other antibodies is 100 times.
